Source: patent US20250179180A1

Target: human CD3 (human) (UniProt P07766)
Sequence (P07766 23-207 limits assumed, chain 1 of 2): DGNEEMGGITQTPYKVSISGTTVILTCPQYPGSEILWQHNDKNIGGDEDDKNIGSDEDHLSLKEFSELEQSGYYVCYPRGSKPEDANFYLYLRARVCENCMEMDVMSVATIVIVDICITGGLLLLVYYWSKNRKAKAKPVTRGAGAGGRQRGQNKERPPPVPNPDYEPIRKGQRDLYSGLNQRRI
Sequence (chain, as listed by the source limits assumed, chain 2 of 2): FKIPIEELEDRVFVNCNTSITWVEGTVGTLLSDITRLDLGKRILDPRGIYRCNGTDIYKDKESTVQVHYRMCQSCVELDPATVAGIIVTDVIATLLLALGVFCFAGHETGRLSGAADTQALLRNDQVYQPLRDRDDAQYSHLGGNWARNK

Kd: 30 nM
Substance: TNB-384B (bispecific antibody)
